In data set [1] the target is VSV Gth (aa residues 1-422, VSV G fragment that was previously crystallized) (vesicular stomatitis virus). Description: negative staining electron microscopy.
Data set [2] deals with the molecule itself. Put plainly: negative staining electron microscopy.

For orientation: stoichiometry N means the number of molecules, sites or subunits per partner or assembly. “VSV Gth (aa residues 1-422, VSV G fragment that was previously crystallized) (domain or fragment)” showed a stoichiometry N in data set [1] of 3.

B1: MOKV G_(1-436)WT (wild type Mokola virus glycoprotein G ectodomain) (domain or fragment)
chain: EFPLYTIPEKIEKWTPIDMIHLSCPNNLLSEEEGCNAESSFTYFELKSGYLAHQKVPGFTCTGVVNEAETYTNFVGYVTTTFKRKHFRPTVAACRDAYNWKVSGDPRYEESLHTPYPDSSWLRTVTTTKESLLIISPSIVEMDIYGRTLHSPMFPSGVCSNVYPSVPSCETNHDYTLWLPEDPSLSLVCDIFTSSNGKKAMNGSRICGFKDERGFYRSLKGACKLTLCGRPGIRLFDGTWVSFTKPDVHVWCTPNQLINIHNDRLDEIEHLIVEDIIKKREECLDTLETILMSQSVSFRRLSHFRKLVPGYGKAYTILNGSLMETNVYYKRVDKWADILPSKGCLKVGQQCMEPVKGVLFNGIIKGPDGQILIPEMQSEQLKQHMDLLKAAVFPLRHPLISREAVFKKDGDADDFVDLHMPDVHKSVSDVDLGLPH
B1: the “stoichiometry N” value in data set [2] stood at 3.

The values are drawn from paper PMC7082061 (PLoS Pathogens, 2020).
